Test results: patent publication EP4692114A1, “CALCITONIN ANALOGUE, AND DERIVATIVE THEREOF AND USE THEREOF” (Hangzhou Sciwind Biosciences Co., Ltd., priority 2023, dated 2024)
*1 amine or outer side, *2 acyl side, *3 side chain or, on linkers, in order; H or OH if unused. [ ]: non-standard residue; d: D form. The star is where a group is joined. C20 diacid = O=C(O)CCCCCCCCCCCCCCCCCCC(=O)*; C18 diacid = O=C(O)CCCCCCCCCCCCCCCCC(=O)*; γGlu = O=C(O)[C@H](CCC(=O)[*:2])N[*:1]; AEEA = NCCOCCOCC(=O)O

B1: calcitonin derivative M57 (peptide)
peptide: {C20 diacid-γGlu-AEEA-AEEA}-ASQLSTAVLGRLSEELHRLQDYPRTDVGSGSP-NH2
SMILES: CC(C)C[C@H](NC(=O)[C@H](CCCNC(=N)N)NC(=O)CNC(=O)[C@H](CC(C)C)NC(=O)[C@@H](NC(=O)[C@H](C)NC(=O)[C@@H](NC(=O)[C@H](CO)NC(=O)[C@H](CC(C)C)NC(=O)[C@H](CCC(N)=O)NC(=O)[C@H](CO)NC(=O)[C@H](C)NC(=O)COCCOCCNC(=O)COCCOCCNC(=O)CC[C@H](NC(=O)CCCCCCCCCCCCCCCCCCC(=O)O)C(=O)O)[C@@H](C)O)C(C)C)C(=O)N[C@@H](CO)C(=O)N[C@@H](CCC(=O)O)C(=O)N[C@@H](CCC(=O)O)C(=O)N[C@@H](CC(C)C)C(=O)N[C@@H](Cc1c[nH]cn1)C(=O)N[C@@H](CCCNC(=N)N)C(=O)N[C@@H](CC(C)C)C(=O)N[C@@H](CCC(N)=O)C(=O)N[C@@H](CC(=O)O)C(=O)N[C@@H](Cc1ccc(O)cc1)C(=O)N1CCC[C@H]1C(=O)N[C@@H](CCCNC(=N)N)C(=O)N[C@H](C(=O)N[C@@H](CC(=O)O)C(=O)N[C@H](C(=O)NCC(=O)N[C@@H](CO)C(=O)NCC(=O)N[C@@H](CO)C(=O)N1CCC[C@H]1C(N)=O)C(C)C)[C@@H](C)O
B2: calcitonin derivative M9 (peptide)
peptide: {C20 diacid-γGlu}-ASQLSTAVLGRLSEELHRLQDYPRTDVGSGSP-NH2
SMILES: CC(C)C[C@H](NC(=O)[C@H](CCCNC(=N)N)NC(=O)CNC(=O)[C@H](CC(C)C)NC(=O)[C@@H](NC(=O)[C@H](C)NC(=O)[C@@H](NC(=O)[C@H](CO)NC(=O)[C@H](CC(C)C)NC(=O)[C@H](CCC(N)=O)NC(=O)[C@H](CO)NC(=O)[C@H](C)NC(=O)CC[C@H](NC(=O)CCCCCCCCCCCCCCCCCCC(=O)O)C(=O)O)[C@@H](C)O)C(C)C)C(=O)N[C@@H](CO)C(=O)N[C@@H](CCC(=O)O)C(=O)N[C@@H](CCC(=O)O)C(=O)N[C@@H](CC(C)C)C(=O)N[C@@H](Cc1c[nH]cn1)C(=O)N[C@@H](CCCNC(=N)N)C(=O)N[C@@H](CC(C)C)C(=O)N[C@@H](CCC(N)=O)C(=O)N[C@@H](CC(=O)O)C(=O)N[C@@H](Cc1ccc(O)cc1)C(=O)N1CCC[C@H]1C(=O)N[C@@H](CCCNC(=N)N)C(=O)N[C@H](C(=O)N[C@@H](CC(=O)O)C(=O)N[C@H](C(=O)NCC(=O)N[C@@H](CO)C(=O)NCC(=O)N[C@@H](CO)C(=O)N1CCC[C@H]1C(N)=O)C(C)C)[C@@H](C)O
B3: calcitonin derivative M24 (peptide)
peptide: {C18 diacid}-EASQLSTAVLGRLSQELHRLQDYPRTDVGSGSP-NH2
SMILES: CC(C)C[C@H](NC(=O)[C@H](CCCNC(=N)N)NC(=O)CNC(=O)[C@H](CC(C)C)NC(=O)[C@@H](NC(=O)[C@H](C)NC(=O)[C@@H](NC(=O)[C@H](CO)NC(=O)[C@H](CC(C)C)NC(=O)[C@H](CCC(N)=O)NC(=O)[C@H](CO)NC(=O)[C@H](C)NC(=O)[C@H](CCC(=O)O)NC(=O)CCCCCCCCCCCCCCCCC(=O)O)[C@@H](C)O)C(C)C)C(=O)N[C@@H](CO)C(=O)N[C@@H](CCC(N)=O)C(=O)N[C@@H](CCC(=O)O)C(=O)N[C@@H](CC(C)C)C(=O)N[C@@H](Cc1c[nH]cn1)C(=O)N[C@@H](CCCNC(=N)N)C(=O)N[C@@H](CC(C)C)C(=O)N[C@@H](CCC(N)=O)C(=O)N[C@@H](CC(=O)O)C(=O)N[C@@H](Cc1ccc(O)cc1)C(=O)N1CCC[C@H]1C(=O)N[C@@H](CCCNC(=N)N)C(=O)N[C@H](C(=O)N[C@@H](CC(=O)O)C(=O)N[C@H](C(=O)NCC(=O)N[C@@H](CO)C(=O)NCC(=O)N[C@@H](CO)C(=O)N1CCC[C@H]1C(N)=O)C(C)C)[C@@H](C)O
B4: calcitonin derivative M41 (peptide)
peptide: {C20 diacid}-EASQLSTAVLGRLSDELHRLQDYPRTDVGSGSP-NH2
SMILES: CC(C)C[C@H](NC(=O)[C@H](CCCNC(=N)N)NC(=O)CNC(=O)[C@H](CC(C)C)NC(=O)[C@@H](NC(=O)[C@H](C)NC(=O)[C@@H](NC(=O)[C@H](CO)NC(=O)[C@H](CC(C)C)NC(=O)[C@H](CCC(N)=O)NC(=O)[C@H](CO)NC(=O)[C@H](C)NC(=O)[C@H](CCC(=O)O)NC(=O)CCCCCCCCCCCCCCCCCCC(=O)O)[C@@H](C)O)C(C)C)C(=O)N[C@@H](CO)C(=O)N[C@@H](CC(=O)O)C(=O)N[C@@H](CCC(=O)O)C(=O)N[C@@H](CC(C)C)C(=O)N[C@@H](Cc1c[nH]cn1)C(=O)N[C@@H](CCCNC(=N)N)C(=O)N[C@@H](CC(C)C)C(=O)N[C@@H](CCC(N)=O)C(=O)N[C@@H](CC(=O)O)C(=O)N[C@@H](Cc1ccc(O)cc1)C(=O)N1CCC[C@H]1C(=O)N[C@@H](CCCNC(=N)N)C(=O)N[C@H](C(=O)N[C@@H](CC(=O)O)C(=O)N[C@H](C(=O)NCC(=O)N[C@@H](CO)C(=O)NCC(=O)N[C@@H](CO)C(=O)N1CCC[C@H]1C(N)=O)C(C)C)[C@@H](C)O
B5: calcitonin derivative M58 (peptide)
peptide: {C20 diacid}-E[AEEA][AEEA]ASQLSTAVLGRLSEELHRLQDYPRTDVGSGSP-NH2
SMILES: CC(C)C[C@H](NC(=O)[C@H](CCCNC(=N)N)NC(=O)CNC(=O)[C@H](CC(C)C)NC(=O)[C@@H](NC(=O)[C@H](C)NC(=O)[C@@H](NC(=O)[C@H](CO)NC(=O)[C@H](CC(C)C)NC(=O)[C@H](CCC(N)=O)NC(=O)[C@H](CO)NC(=O)[C@H](C)NC(=O)COCCOCCNC(=O)COCCOCCNC(=O)[C@H](CCC(=O)O)NC(=O)CCCCCCCCCCCCCCCCCCC(=O)O)[C@@H](C)O)C(C)C)C(=O)N[C@@H](CO)C(=O)N[C@@H](CCC(=O)O)C(=O)N[C@@H](CCC(=O)O)C(=O)N[C@@H](CC(C)C)C(=O)N[C@@H](Cc1c[nH]cn1)C(=O)N[C@@H](CCCNC(=N)N)C(=O)N[C@@H](CC(C)C)C(=O)N[C@@H](CCC(N)=O)C(=O)N[C@@H](CC(=O)O)C(=O)N[C@@H](Cc1ccc(O)cc1)C(=O)N1CCC[C@H]1C(=O)N[C@@H](CCCNC(=N)N)C(=O)N[C@H](C(=O)N[C@@H](CC(=O)O)C(=O)N[C@H](C(=O)NCC(=O)N[C@@H](CO)C(=O)NCC(=O)N[C@@H](CO)C(=O)N1CCC[C@H]1C(N)=O)C(C)C)[C@@H](C)O
B6: calcitonin derivative M25 (peptide)
peptide: {C20 diacid-γGlu}-LSQLSTLVLGRLSQELHRLQDYPRTDVGSGSP-NH2
SMILES: CC(C)C[C@H](NC(=O)CC[C@H](NC(=O)CCCCCCCCCCCCCCCCCCC(=O)O)C(=O)O)C(=O)N[C@@H](CO)C(=O)N[C@@H](CCC(N)=O)C(=O)N[C@@H](CC(C)C)C(=O)N[C@@H](CO)C(=O)N[C@H](C(=O)N[C@@H](CC(C)C)C(=O)N[C@H](C(=O)N[C@@H](CC(C)C)C(=O)NCC(=O)N[C@@H](CCCNC(=N)N)C(=O)N[C@@H](CC(C)C)C(=O)N[C@@H](CO)C(=O)N[C@@H](CCC(N)=O)C(=O)N[C@@H](CCC(=O)O)C(=O)N[C@@H](CC(C)C)C(=O)N[C@@H](Cc1c[nH]cn1)C(=O)N[C@@H](CCCNC(=N)N)C(=O)N[C@@H](CC(C)C)C(=O)N[C@@H](CCC(N)=O)C(=O)N[C@@H](CC(=O)O)C(=O)N[C@@H](Cc1ccc(O)cc1)C(=O)N1CCC[C@H]1C(=O)N[C@@H](CCCNC(=N)N)C(=O)N[C@H](C(=O)N[C@@H](CC(=O)O)C(=O)N[C@H](C(=O)NCC(=O)N[C@@H](CO)C(=O)NCC(=O)N[C@@H](CO)C(=O)N1CCC[C@H]1C(N)=O)C(C)C)[C@@H](C)O)C(C)C)[C@@H](C)O

target: T1, human amylin receptor (AMY3) on CHO-K1/Gal5/AMY3 cells (human, UniProt P30988 25-474; O60896 24-148); experiment: cell-based or functional assay
T1 sequence (looked up) 1: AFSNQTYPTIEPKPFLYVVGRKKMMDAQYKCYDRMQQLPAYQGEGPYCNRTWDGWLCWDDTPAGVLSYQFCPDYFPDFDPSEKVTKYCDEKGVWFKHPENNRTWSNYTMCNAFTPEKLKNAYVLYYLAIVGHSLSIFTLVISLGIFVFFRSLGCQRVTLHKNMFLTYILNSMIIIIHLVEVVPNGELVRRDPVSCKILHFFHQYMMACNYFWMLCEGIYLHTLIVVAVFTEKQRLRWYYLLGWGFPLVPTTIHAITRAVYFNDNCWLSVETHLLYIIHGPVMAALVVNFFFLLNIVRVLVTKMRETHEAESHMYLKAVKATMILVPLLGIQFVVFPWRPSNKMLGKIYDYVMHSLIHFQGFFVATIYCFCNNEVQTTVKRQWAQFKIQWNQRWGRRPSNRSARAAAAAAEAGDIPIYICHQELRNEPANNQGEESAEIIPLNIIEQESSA
T1 sequence (looked up) 2: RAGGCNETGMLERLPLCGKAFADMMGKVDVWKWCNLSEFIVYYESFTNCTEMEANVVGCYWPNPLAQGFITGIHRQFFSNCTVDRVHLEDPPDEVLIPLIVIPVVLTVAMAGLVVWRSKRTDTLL

B1 and B2 are the same in “EC50/nM, CRE-luciferase in amylin receptor/CRE-luc CHO cells” value: 0.017 nM for the first, 0.017 nM for the second.

First: B3
Second: B4
The “EC50/nM, CRE-luciferase in amylin receptor/CRE-luc CHO cells” value of the first is 4.3-fold lower: 0.016 nM for the first, 0.069 nM for the second.

B5 and B6 are within 1.5-fold of each other in “EC50/nM, CRE-luciferase in amylin receptor/CRE-luc CHO cells” value: 0.017 nM for the first, 0.016 nM for the second.
